{"source": "patent US20260167699A1", "about": "(Chugai, published 2026)", "binders": {"B1": {"name": "GpH7-A5/GpH7-B3 variant L234_01G/GpL16-k0 (antibody, human IgG1, kappa)", "heavy 1": "not shown", "heavy 2": "not shown", "light": "DIVMTQSPLSLPVTPGEPASISCQASESLVHSNRNTYLHWYLQKPGQSPQLLIYKVSNRFSGVPDRFSGSGSGTDFTLKISRVEAEDVGVYYCSQNTHVPPTFGQGTKVEIERTVAAPSVFIFPPSDEQLKSGTASVVCLLNNFYPREAKVQWKVDNALQSGNSQESVTEQDSKDSTYSLSSTLTLSKADYEKHKVYACEVTHQGLSSPVTKSFNRGEC", "notes": "copies: 1 + 1 + 2"}, "B2": {"name": "GpH7-A5/GpH7-B3 variant L234_19Q/GpL16-k0 (antibody, human IgG1, kappa)", "heavy 1": "not shown", "heavy 2": "not shown", "light": "DIVMTQSPLSLPVTPGEPASISCQASESLVHSNRNTYLHWYLQKPGQSPQLLIYKVSNRFSGVPDRFSGSGSGTDFTLKISRVEAEDVGVYYCSQNTHVPPTFGQGTKVEIERTVAAPSVFIFPPSDEQLKSGTASVVCLLNNFYPREAKVQWKVDNALQSGNSQESVTEQDSKDSTYSLSSTLTLSKADYEKHKVYACEVTHQGLSSPVTKSFNRGEC", "notes": "copies: 1 + 1 + 2"}, "B3": {"name": "GpH7-A5/GpH7-B3 variant L234_05P/GpL16-k0 (antibody, human IgG1, kappa)", "heavy 1": "not shown", "heavy 2": "not shown", "light": "DIVMTQSPLSLPVTPGEPASISCQASESLVHSNRNTYLHWYLQKPGQSPQLLIYKVSNRFSGVPDRFSGSGSGTDFTLKISRVEAEDVGVYYCSQNTHVPPTFGQGTKVEIERTVAAPSVFIFPPSDEQLKSGTASVVCLLNNFYPREAKVQWKVDNALQSGNSQESVTEQDSKDSTYSLSSTLTLSKADYEKHKVYACEVTHQGLSSPVTKSFNRGEC", "notes": "copies: 1 + 1 + 2"}, "B4": {"name": "GpH7-A5/GpH7-B3 variant L235_07I/GpL16-k0 (antibody, human IgG1, kappa)", "heavy 1": "not shown", "heavy 2": "not shown", "light": "DIVMTQSPLSLPVTPGEPASISCQASESLVHSNRNTYLHWYLQKPGQSPQLLIYKVSNRFSGVPDRFSGSGSGTDFTLKISRVEAEDVGVYYCSQNTHVPPTFGQGTKVEIERTVAAPSVFIFPPSDEQLKSGTASVVCLLNNFYPREAKVQWKVDNALQSGNSQESVTEQDSKDSTYSLSSTLTLSKADYEKHKVYACEVTHQGLSSPVTKSFNRGEC", "notes": "copies: 1 + 1 + 2"}, "B5": {"name": "GpH7-A5/GpH7-B3 variant L234_04F/GpL16-k0 (antibody, human IgG1, kappa)", "heavy 1": "not shown", "heavy 2": "not shown", "light": "DIVMTQSPLSLPVTPGEPASISCQASESLVHSNRNTYLHWYLQKPGQSPQLLIYKVSNRFSGVPDRFSGSGSGTDFTLKISRVEAEDVGVYYCSQNTHVPPTFGQGTKVEIERTVAAPSVFIFPPSDEQLKSGTASVVCLLNNFYPREAKVQWKVDNALQSGNSQESVTEQDSKDSTYSLSSTLTLSKADYEKHKVYACEVTHQGLSSPVTKSFNRGEC", "notes": "copies: 1 + 1 + 2"}, "B6": {"name": "GpH7-A5/GpH7-B3 variant L235_01G/GpL16-k0 (antibody, human IgG1, kappa)", "heavy 1": "not shown", "heavy 2": "not shown", "light": "DIVMTQSPLSLPVTPGEPASISCQASESLVHSNRNTYLHWYLQKPGQSPQLLIYKVSNRFSGVPDRFSGSGSGTDFTLKISRVEAEDVGVYYCSQNTHVPPTFGQGTKVEIERTVAAPSVFIFPPSDEQLKSGTASVVCLLNNFYPREAKVQWKVDNALQSGNSQESVTEQDSKDSTYSLSSTLTLSKADYEKHKVYACEVTHQGLSSPVTKSFNRGEC", "notes": "copies: 1 + 1 + 2"}, "B7": {"name": "GpH7-A5/GpH7-B3 variant L234_09D/GpL16-k0 (antibody, human IgG1, kappa)", "heavy 1": "not shown", "heavy 2": "not shown", "light": "DIVMTQSPLSLPVTPGEPASISCQASESLVHSNRNTYLHWYLQKPGQSPQLLIYKVSNRFSGVPDRFSGSGSGTDFTLKISRVEAEDVGVYYCSQNTHVPPTFGQGTKVEIERTVAAPSVFIFPPSDEQLKSGTASVVCLLNNFYPREAKVQWKVDNALQSGNSQESVTEQDSKDSTYSLSSTLTLSKADYEKHKVYACEVTHQGLSSPVTKSFNRGEC", "notes": "copies: 1 + 1 + 2"}, "B8": {"name": "GpH7-A5/GpH7-B3 variant L234_14T/GpL16-k0 (antibody, human IgG1, kappa)", "heavy 1": "not shown", "heavy 2": "not shown", "light": "DIVMTQSPLSLPVTPGEPASISCQASESLVHSNRNTYLHWYLQKPGQSPQLLIYKVSNRFSGVPDRFSGSGSGTDFTLKISRVEAEDVGVYYCSQNTHVPPTFGQGTKVEIERTVAAPSVFIFPPSDEQLKSGTASVVCLLNNFYPREAKVQWKVDNALQSGNSQESVTEQDSKDSTYSLSSTLTLSKADYEKHKVYACEVTHQGLSSPVTKSFNRGEC", "notes": "copies: 1 + 1 + 2"}, "B9": {"name": "GpH7-A5/GpH7-B3 variant L234_10E/GpL16-k0 (antibody, human IgG1, kappa)", "heavy 1": "not shown", "heavy 2": "not shown", "light": "DIVMTQSPLSLPVTPGEPASISCQASESLVHSNRNTYLHWYLQKPGQSPQLLIYKVSNRFSGVPDRFSGSGSGTDFTLKISRVEAEDVGVYYCSQNTHVPPTFGQGTKVEIERTVAAPSVFIFPPSDEQLKSGTASVVCLLNNFYPREAKVQWKVDNALQSGNSQESVTEQDSKDSTYSLSSTLTLSKADYEKHKVYACEVTHQGLSSPVTKSFNRGEC", "notes": "copies: 1 + 1 + 2"}, "B10": {"name": "GpH7-A5/GpH7-B3 variant L235_06M/GpL16-k0 (antibody, human IgG1, kappa)", "heavy 1": "not shown", "heavy 2": "not shown", "light": "DIVMTQSPLSLPVTPGEPASISCQASESLVHSNRNTYLHWYLQKPGQSPQLLIYKVSNRFSGVPDRFSGSGSGTDFTLKISRVEAEDVGVYYCSQNTHVPPTFGQGTKVEIERTVAAPSVFIFPPSDEQLKSGTASVVCLLNNFYPREAKVQWKVDNALQSGNSQESVTEQDSKDSTYSLSSTLTLSKADYEKHKVYACEVTHQGLSSPVTKSFNRGEC", "notes": "copies: 1 + 1 + 2"}, "B11": {"name": "GpH7-A5/GpH7-B3 variant L235_03V/GpL16-k0 (antibody, human IgG1, kappa)", "heavy 1": "not shown", "heavy 2": "not shown", "light": "DIVMTQSPLSLPVTPGEPASISCQASESLVHSNRNTYLHWYLQKPGQSPQLLIYKVSNRFSGVPDRFSGSGSGTDFTLKISRVEAEDVGVYYCSQNTHVPPTFGQGTKVEIERTVAAPSVFIFPPSDEQLKSGTASVVCLLNNFYPREAKVQWKVDNALQSGNSQESVTEQDSKDSTYSLSSTLTLSKADYEKHKVYACEVTHQGLSSPVTKSFNRGEC", "notes": "copies: 1 + 1 + 2"}}, "data": [{"biological_target": "T1, FcγRIIIa (human, UniProt P08637 17-208)", "T1 construct": "extracellular domain; also called 3a; FcγRIIIa extracellular domain", "T1 sequence (P08637 other isoform, or with tags, fused parts or gaps)": "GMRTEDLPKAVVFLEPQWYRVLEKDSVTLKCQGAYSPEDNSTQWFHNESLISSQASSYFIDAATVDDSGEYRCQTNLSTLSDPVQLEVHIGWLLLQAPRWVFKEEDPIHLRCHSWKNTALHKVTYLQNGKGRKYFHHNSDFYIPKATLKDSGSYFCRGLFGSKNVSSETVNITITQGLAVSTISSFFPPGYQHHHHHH", "test": "SPR (Biacore);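 note: antibody variants captured on an SPR sensor chip, with FcγRIIIa passed over as analyte in HBS-EP+ buffer at 25 °C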", "values": [{"binder": "B1", "He/Con 3a": "55.8 % of GpH7-A5/GpH7-B3/GpL16-k0"}, {"binder": "B2", "He/Con 3a": "77.1 % of GpH7-A5/GpH7-B3/GpL16-k0"}, {"binder": "B3", "He/Con 3a": "85.1 % of GpH7-A5/GpH7-B3/GpL16-k0"}, {"binder": "B4", "He/Con 3a": "92.8 % of GpH7-A5/GpH7-B3/GpL16-k0"}, {"binder": "B5", "He/Con 3a": "114 % of GpH7-A5/GpH7-B3/GpL16-k0"}, {"binder": "B6", "He/Con 3a": "56.7 % of GpH7-A5/GpH7-B3/GpL16-k0"}, {"binder": "B7", "He/Con 3a": "113 % of GpH7-A5/GpH7-B3/GpL16-k0"}, {"binder": "B8", "He/Con 3a": "69.8 % of GpH7-A5/GpH7-B3/GpL16-k0"}, {"binder": "B9", "He/Con 3a": "111 % of GpH7-A5/GpH7-B3/GpL16-k0"}, {"binder": "B10", "He/Con 3a": "75.6 % of GpH7-A5/GpH7-B3/GpL16-k0"}, {"binder": "B11", "He/Con 3a": "94.6 % of GpH7-A5/GpH7-B3/GpL16-k0"}]}]}
